{
  "source": "patent US20070003561A1",
  "about": "(published 2007)",
  "binders": {"B1": {"name": "Anti-PsaA 5-9A7 (antibody, V domains shown)", "VH": "EVQLVESGGGLVQPGGSLRLSCAASGFTFSSFWMSWVRQAPGKGLEWVANIKQDGSEKFYVDSVKGRFTISRDNAKNSLYLQMNSLRAEDTAVYYCARDRITMVRPYYYFYNGLDVWGQGTTVTVSS", "VL": "EIVLTQSPATLSLSPGERATLSCRASQSVSSYLAWYQQKPGQAPRLLIYDASNRATGIPARFSGSGSGTDFTLTISSLEPEDFAVYYCQQRSNWPPFTFGPGTKVDIK", "notes": "Fully human monoclonal antibody (HuMAb-Mouse), kappa light chain; also called clone 5-9A7"}, "B2": {"name": "F(ab′)2 fragment of the anti-PsaA Ab 5-9A7 (other)", "VH": "B1 VH", "VL": "B1 VL", "notes": "F(ab′)2 made by pepsin digestion; also called anti-PsaA F(ab′)2; 5-9A7 F(ab′)2"}, "B3": {"name": "Anti-PsaA 1-15E5 (antibody, V domains shown)", "VH": "EVQLVESGGGLVQPGGSLRLSCAASGFTFNIFGMSWVRQAPGKGLEWVANIKQDGSEKYYVDSVKGRFTISRDNAKNSLYLQMNSLRAEDTAVYYCARDRFYYGSGSYYYYYNGMDVWGQGTTVTVSS", "VL": "EIVLTQSPATLSLSPGERATLSCRASQSVSSYLAWYQQKPGQAPRLLIYDASNRATGIPARFSGSGSGTDFTLTISSLEPEDFAVYYCQQRSNWPLTFGGGTKVEI", "notes": "Fully human monoclonal antibody (HuMAb-Mouse), kappa light chain; also called clone 1-15E5.2.1; 1-1-15E5"}, "B4": {"name": "Anti-PsaA 7-1G9 (antibody, V domains shown)", "VH": "QVRLQQWGAGLLKPSETLSLTCAVFGGSFSGFSWSWIRQTPGKGLEWIGEIDYRGSTNYNPSLKSRVTILRDTSRSQFSLKLSSVTAADSAVFYCARGGPRFDYWGQGTLVTVSS", "VL": "DIQMTQSPSSLSASVGDRVTITCRASQGISSWLAWYQQKPEKAPESLIYVASSLQSGVPSRFSGSGSGTDFTLTISSLQPEDFATYYCQQYNSYPPTFGQGTKVEIK", "notes": "Fully human monoclonal antibody (HuMAb-Mouse), kappa light chain; also called clone 7-1G9.1"}},
  "key": {"[1]": {"molecular_target": "T1, Streptococcus pneumoniae surface adhesin A (PsaA) protein (Streptococcus pneumoniae, UniProt P0A4G2 20-309)", "T1 construct": "also called Pneumococcal surface adhesin A; recombinant PsaA", "T1 sequence": "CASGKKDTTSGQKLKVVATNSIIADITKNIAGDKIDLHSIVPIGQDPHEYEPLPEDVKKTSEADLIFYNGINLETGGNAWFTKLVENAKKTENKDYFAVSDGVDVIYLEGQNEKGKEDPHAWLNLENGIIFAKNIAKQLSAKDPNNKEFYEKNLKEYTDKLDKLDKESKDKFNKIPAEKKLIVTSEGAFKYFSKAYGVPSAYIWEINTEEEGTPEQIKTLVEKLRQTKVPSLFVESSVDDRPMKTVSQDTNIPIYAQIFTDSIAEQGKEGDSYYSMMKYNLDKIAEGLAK", "experiment": "whole-bacteria ELISA, strain R6, Ab 5 µg/ml"}, "[2]": {"molecular_target": "T1, Streptococcus pneumoniae surface …", "experiment": "whole-bacteria ELISA, strain 1, Ab 0.5 µg/ml"}, "[3]": {"molecular_target": "T1, Streptococcus pneumoniae surface …", "experiment": "whole-bacteria ELISA, strain R6, Ab 50 ng/ml"}, "[4]": {"molecular_target": "T1, Streptococcus pneumoniae surface …", "experiment": "whole-bacteria ELISA, strain 6B, Ab 0.5 µg/ml"}, "[5]": {"molecular_target": "T1, Streptococcus pneumoniae surface …", "experiment": "whole-bacteria ELISA, strain 9V, Ab 0.5 µg/ml"}, "[6]": {"molecular_target": "T1, Streptococcus pneumoniae surface …", "experiment": "whole-bacteria ELISA, strain D39, Ab 0.5 µg/ml"}, "[7]": {"molecular_target": "T1, Streptococcus pneumoniae surface …", "experiment": "whole-bacteria ELISA, strain 14, Ab 0.5 µg/ml"}, "[8]": {"molecular_target": "T1, Streptococcus pneumoniae surface …", "experiment": "whole-bacteria ELISA, strain R6, Ab 5 ng/ml"}, "[9]": {"molecular_target": "T1, Streptococcus pneumoniae surface …", "experiment": "whole-bacteria ELISA, strain 8, Ab 0.5 µg/ml"}, "[10]": {"molecular_target": "T1, Streptococcus pneumoniae surface …", "experiment": "whole-bacteria ELISA, strain 7F, Ab 0.5 µg/ml"}, "[11]": {"molecular_target": "T1, Streptococcus pneumoniae surface …", "experiment": "whole-bacteria ELISA, strain R6, Ab 0.5 µg/ml"}, "[12]": {"molecular_target": "T1, Streptococcus pneumoniae surface …", "experiment": "SPR (Biacore 3000), PsaA amine-coupled on CM5 chip, antibody in flow, 1:1 Langmuir fit"}, "[13]": {"molecular_target": "T1, Streptococcus pneumoniae surface …", "experiment": "whole-bacteria ELISA, strain 4, Ab 0.5 µg/ml"}, "[14]": {"molecular_target": "T1, Streptococcus pneumoniae surface …", "experiment": "whole-bacteria ELISA, strain 12F, Ab 0.5 µg/ml"}, "[15]": {"molecular_target": "T1, Streptococcus pneumoniae surface …", "experiment": "whole-bacteria ELISA, strain R6, Ab 0.5 ng/ml"}, "[16]": {"molecular_target": "T1, Streptococcus pneumoniae surface …", "experiment": "whole-bacteria ELISA, strain 23F, Ab 0.5 µg/ml"}, "[17]": {"molecular_target": "T1, Streptococcus pneumoniae surface …", "experiment": "whole-bacteria ELISA, strain 3, Ab 0.5 µg/ml"}, "[18]": {"molecular_target": "T2, fusion protein consisting of soluble CD64 linked to the Fc portion of human IgM (human, UniProt P12314 16-292; P01871 106-453, limits assumed)", "T2 construct": "Used as a culture supernatant; also called soluble CD64-IgM fusion protein", "T2 sequence (P12314 other isoform, or with tags, fused parts or gaps limits assumed)": "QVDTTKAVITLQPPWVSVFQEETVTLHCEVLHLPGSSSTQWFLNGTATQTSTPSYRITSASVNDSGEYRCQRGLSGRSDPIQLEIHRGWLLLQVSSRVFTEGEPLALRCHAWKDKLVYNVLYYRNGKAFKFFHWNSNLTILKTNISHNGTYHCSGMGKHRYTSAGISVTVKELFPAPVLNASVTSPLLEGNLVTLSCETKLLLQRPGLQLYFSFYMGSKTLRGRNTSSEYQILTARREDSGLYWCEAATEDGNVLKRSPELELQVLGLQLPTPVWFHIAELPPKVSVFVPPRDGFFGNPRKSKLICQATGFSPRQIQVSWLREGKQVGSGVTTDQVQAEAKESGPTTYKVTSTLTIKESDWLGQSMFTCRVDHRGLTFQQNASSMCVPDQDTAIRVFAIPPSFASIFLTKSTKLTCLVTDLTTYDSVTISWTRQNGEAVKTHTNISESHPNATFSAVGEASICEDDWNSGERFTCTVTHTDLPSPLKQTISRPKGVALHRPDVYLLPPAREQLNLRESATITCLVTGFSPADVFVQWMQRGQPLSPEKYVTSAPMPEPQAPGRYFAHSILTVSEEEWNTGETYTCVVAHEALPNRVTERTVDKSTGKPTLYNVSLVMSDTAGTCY", "experiment": "bispecific sandwich ELISA: coated recombinant PsaA, detection with soluble CD64-IgM fusion and AP anti-human IgM"}},
  "data": [
    {"binder": "B1", "values": [
      {"measurement": "R6 ELISA (corrected)", "setting": "[1]", "value": 1.39},
      {"measurement": "ELISA (0.5 µg/ml) (corrected)", "setting": "[2]", "value": 0.4},
      {"measurement": "R6 ELISA (corrected)", "setting": "[3]", "value": 1.32},
      {"measurement": "ELISA (0.5 µg/ml) (corrected)", "setting": "[4]", "value": 0.39},
      {"measurement": "ELISA (0.5 µg/ml) (corrected)", "setting": "[5]", "value": "> 3"},
      {"measurement": "ELISA (0.5 µg/ml) (corrected)", "setting": "[6]", "value": 0.66},
      {"measurement": "ELISA (0.5 µg/ml) (corrected)", "setting": "[7]", "value": 1.42},
      {"measurement": "R6 ELISA (corrected)", "setting": "[8]", "value": 0.41},
      {"measurement": "ELISA (0.5 µg/ml) (corrected)", "setting": "[9]", "value": 1.52},
      {"measurement": "ELISA (0.5 µg/ml) (corrected)", "setting": "[10]", "value": 1.17},
      {"measurement": "ELISA (0.5 µg/ml) (corrected)", "setting": "[11]", "value": 1.39},
      {"measurement": "R6 ELISA (corrected)", "setting": "[11]", "value": 1.65},
      {"measurement": "Kd", "setting": "[12]", "value": 37.4, "unit": "pM"},
      {"measurement": "koff", "setting": "[12]", "value": "1.41e-05", "unit": "s⁻¹"},
      {"measurement": "kon", "setting": "[12]", "value": 377000, "unit": "M⁻¹ s⁻¹"},
      {"measurement": "ELISA (0.5 µg/ml) (corrected)", "setting": "[13]", "value": 0.33},
      {"measurement": "ELISA (0.5 µg/ml) (corrected)", "setting": "[14]", "value": 1.51},
      {"measurement": "R6 ELISA (corrected)", "setting": "[15]", "value": 0.26},
      {"measurement": "ELISA (0.5 µg/ml) (corrected)", "setting": "[16]", "value": 0.37},
      {"measurement": "ELISA (0.5 µg/ml) (corrected)", "setting": "[17]", "value": 1.31}
    ]},
    {"binder": "B2", "values": [
      {"measurement": "binding result", "setting": "[18]", "value": "no binding (tested: 1 µg/ml)"}
    ]},
    {"binder": "B3", "values": [
      {"measurement": "Kd", "setting": "[12]", "value": 118, "unit": "pM"},
      {"measurement": "koff", "setting": "[12]", "value": "6.72e-06", "unit": "s⁻¹"},
      {"measurement": "kon", "setting": "[12]", "value": 57100, "unit": "M⁻¹ s⁻¹"}
    ]},
    {"binder": "B4", "values": [
      {"measurement": "R6 ELISA (corrected)", "setting": "[1]", "value": 1.36},
      {"measurement": "ELISA (0.5 µg/ml) (corrected)", "setting": "[2]", "value": 0.35},
      {"measurement": "R6 ELISA (corrected)", "setting": "[3]", "value": 1.78},
      {"measurement": "ELISA (0.5 µg/ml) (corrected)", "setting": "[4]", "value": 0.4},
      {"measurement": "ELISA (0.5 µg/ml) (corrected)", "setting": "[5]", "value": "> 3"},
      {"measurement": "ELISA (0.5 µg/ml) (corrected)", "setting": "[6]", "value": 0.68},
      {"measurement": "ELISA (0.5 µg/ml) (corrected)", "setting": "[7]", "value": 1.32},
      {"measurement": "R6 ELISA (corrected)", "setting": "[8]", "value": 0.54},
      {"measurement": "ELISA (0.5 µg/ml) (corrected)", "setting": "[9]", "value": 1.5},
      {"measurement": "ELISA (0.5 µg/ml) (corrected)", "setting": "[10]", "value": 1.06},
      {"measurement": "ELISA (0.5 µg/ml) (corrected)", "setting": "[11]", "value": 1.38},
      {"measurement": "R6 ELISA (corrected)", "setting": "[11]", "value": 1.68},
      {"measurement": "Kd", "setting": "[12]", "value": 63.4, "unit": "pM"},
      {"measurement": "koff", "setting": "[12]", "value": "2.87e-05", "unit": "s⁻¹"},
      {"measurement": "kon", "setting": "[12]", "value": 435000, "unit": "M⁻¹ s⁻¹"},
      {"measurement": "ELISA (0.5 µg/ml) (corrected)", "setting": "[13]", "value": 0.33},
      {"measurement": "ELISA (0.5 µg/ml) (corrected)", "setting": "[14]", "value": 1.46},
      {"measurement": "R6 ELISA (corrected)", "setting": "[15]", "value": 0.31},
      {"measurement": "ELISA (0.5 µg/ml) (corrected)", "setting": "[16]", "value": 0.36},
      {"measurement": "ELISA (0.5 µg/ml) (corrected)", "setting": "[17]", "value": 1.24}
    ]}
  ]
}
